This is an account of results in patent US20250170238A1 (LANIER BIOTHERAPEUTICS, published 2025).

Assay [1] concerns the target T1, Human IL-25 (made from human (HEK) sources) (human, UniProt Q9H293 33-177).
T1 construct: also called IL-17E
T1 sequence (looked up): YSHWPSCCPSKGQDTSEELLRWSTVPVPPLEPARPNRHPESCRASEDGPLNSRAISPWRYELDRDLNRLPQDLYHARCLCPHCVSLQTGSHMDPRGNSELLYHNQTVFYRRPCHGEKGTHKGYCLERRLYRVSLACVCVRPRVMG
The experiment in a line: binding affinity, method not stated; human IL-25 made in HEK.

The target of assay [2] is T2, mouse IL-25 (made from mouse (NSO) source) (mouse, UniProt Q8VHH8 17-169).
T2 sequence (looked up): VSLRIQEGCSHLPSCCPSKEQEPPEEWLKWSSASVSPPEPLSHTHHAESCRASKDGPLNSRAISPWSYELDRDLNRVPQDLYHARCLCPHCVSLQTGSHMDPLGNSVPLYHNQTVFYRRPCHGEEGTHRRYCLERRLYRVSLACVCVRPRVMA
The experiment in a line: binding affinity, method not stated; mouse IL-25 made in NSO.

For assay [3], the target named is T1, Human IL-25 (made from human (HEK) …). The assay can be described thus: cell-based or functional assay.
The target of assay [4] is T2, mouse IL-25 (made from mouse (NSO) …). The experiment in a line: cell-based or functional assay.
A further assay addresses T3, Cyno Monkey IL-25 (HEK) (cynomolgus monkey, UniProt G7P9V9 33-176).
T3 construct: also called Cyno Monkey (HEK)
T3 sequence: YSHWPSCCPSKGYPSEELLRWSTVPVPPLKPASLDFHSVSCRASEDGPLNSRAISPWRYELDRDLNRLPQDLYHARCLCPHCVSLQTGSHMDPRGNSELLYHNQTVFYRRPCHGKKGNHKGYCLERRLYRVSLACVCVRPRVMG
The experiment in a line: binding affinity, method not stated; cyno monkey IL-25 made in HEK.

B1: anti-IL-25 antibody LNR125 (antibody, V domains shown)
VH: QVTLKVSGPGILQPSQTLSLTCSFSGFSLNTSGMGVGWIRQPSGKGLEWLAHIWWDDVKRYNPALKSRLTISKDTSGSQVFLKIASVDTADTATYYCARTLPHFFDYWGQGTTLTVSS
VL: DIQMTQSPAIMSASPGEKVTISCRASSSVSYMYWYQQKSGSSPKPWIYRTSNLASGVPARFSGSGSGTSYSLTISSMEAEDAATYYCKQYHSYPPTWTFGGGTKLEIKR
A word on the Kd: it is the constant that tells how readily two partners part at equilibrium. On to B1, for which the Kd came out at 0.128 nM in assay [1], 0.168 nM in assay [2] and 0.17 nM with Cyno Monkey IL-25 (HEK). In addition, the entries for the “Potency IC50 in HT29 cell assay” value in assay [3] and in assay [4] were 120 µg/mL and 130 µg/mL, respectively.

B2: humanized anti-IL-25 antibody LNR125.38 (antibody, V domains shown)
VH: QVTLKESGPTLVKPTQTLTLTCTFSGFSLSTSGMGVGWIRQPPGKALEWLAHIWWDDVKRYNPSLKSRLTITKDTSGSQVVLTMTNMDPVDTATYYCARTLPHFHDYWGQGTTLTVSS
VL: DIQMTQSPSTLSASVGDRVTITCRASSSVSYMYWYQQKPGKAPKPLIYRTSNLASGVPSRFSGSGSGTEYTLTISSLQPDDFATYYCKQYHSYPPTWTFGGGTKVEIKR
On to B2, for which the Kd in assay [1] was found to be 0.051 nM; in assay [2], 0.096 nM; with Cyno Monkey IL-25 (HEK), 0.235 nM. In addition, the “Potency IC50 in HT29 cell assay” value was found to be 100 µg/mL in assay [3] and 780 µg/mL in assay [4].
